{"source": "the Human Domainome abundance scans (Beltran et al. 2025)", "parents": {"B1": {"name": "Nuclear receptor subfamily 1 group D member 2, residues 103 to 171; numbered along this chain, Q14995 (parent)", "chain": "CKVCGDVASGFHYGVHACEGCKGFFRRSIQQNIQYKKCLKNENCSIMRMNRNRCQQCRFKKCLSVGMSR"}}, "note": "± gives the uncertainty stated by the source."}
{"variants_of": "B1", "experiment": "abundance fitness (aPCA) (normalised: wild type 0, dead -1); higher = more abundant; growth selection in yeast, the domain comes from the species named", "conditions": "Homo sapiens"}
{"variant": "CKVCGDVASGFHYGVHACEGCKGFFRRSIQQGIQYKKCLKNENCSIMRMNRNRCQQCRFKKCLSVGMSR", "abundance fitness": "-0.074 ± 0.046"}
{"variant": "CKVCGDVASGFHYGVHACEGCKGFFRRSIQQDIQYKKCLKNENCSIMRMNRNRCQQCRFKKCLSVGMSR", "abundance fitness": "-0.199 ± 0.093"}
{"variant": "CKVCGDVASGFHYGVHACEGCKGFFRRSIQQFIQYKKCLKNENCSIMRMNRNRCQQCRFKKCLSVGMSR", "abundance fitness": "-0.408 ± 0.14"}
{"variant": "CKVCGDVASGFHYGVHACEGCKGFFRRSIQQSIQYKKCLKNENCSIMRMNRNRCQQCRFKKCLSVGMSR", "abundance fitness": "-0.381 ± 0.072"}
{"variant": "CKVCGDVASGFHYGVHACEGCKGFFRRSIQQKIQYKKCLKNENCSIMRMNRNRCQQCRFKKCLSVGMSR", "abundance fitness": "-0.401 ± 0.11"}
{"variant": "CKVCGDVASGFHYGVHACEGCKGFFRRSIQQWIQYKKCLKNENCSIMRMNRNRCQQCRFKKCLSVGMSR", "abundance fitness": "-0.891 ± 0.12"}
{"variant": "CKVCGDVASGFHYGVHACEGCKGFFRRSIQQRIQYKKCLKNENCSIMRMNRNRCQQCRFKKCLSVGMSR", "abundance fitness": "-0.423 ± 0.068"}
{"variant": "CKVCGDVASGFHYGVHACEGCKGFFRRSIQSNIQYKKCLKNENCSIMRMNRNRCQQCRFKKCLSVGMSR", "abundance fitness": "-0.207 ± 0.12"}
{"variant": "CKVCGDVASGFHYGVHACEGCKGFFRRSIQENIQYKKCLKNENCSIMRMNRNRCQQCRFKKCLSVGMSR", "abundance fitness": "0.197 ± 0.1"}
{"variant": "CKVCGDVASGFHYGVHACEGCKGFFRRSIQNNIQYKKCLKNENCSIMRMNRNRCQQCRFKKCLSVGMSR", "abundance fitness": "-0.475 ± 0.37"}
{"variant": "CKVCGDVASGFHYGVHACEGCKGFFRRSIQRNIQYKKCLKNENCSIMRMNRNRCQQCRFKKCLSVGMSR", "abundance fitness": "-0.289 ± 0.075"}
{"variant": "CKVCGDVASGFHYGVHACEGCKGFFRRSIQVNIQYKKCLKNENCSIMRMNRNRCQQCRFKKCLSVGMSR", "abundance fitness": "-0.623 ± 0.13"}
{"variant": "CKVCGDVASGFHYGVHACEGCKGFFRRSIQINIQYKKCLKNENCSIMRMNRNRCQQCRFKKCLSVGMSR", "abundance fitness": "-0.635 ± 0.29"}
{"variant": "CKVCGDVASGFHYGVHACEGCKGFFRRSIQYNIQYKKCLKNENCSIMRMNRNRCQQCRFKKCLSVGMSR", "abundance fitness": "-0.276 ± 0.18"}
{"variant": "CKVCGDVASGFHYGVHACEGCKGFFRRSIQFNIQYKKCLKNENCSIMRMNRNRCQQCRFKKCLSVGMSR", "abundance fitness": "0.04 ± 0.2"}
{"variant": "CKVCGDVASGFHYGVHACEGCKGFFRRSIQWNIQYKKCLKNENCSIMRMNRNRCQQCRFKKCLSVGMSR", "abundance fitness": "-0.465 ± 0.12"}
{"variant": "CKVCGDVASGFHYGVHACEGCKGFFRRSIQTNIQYKKCLKNENCSIMRMNRNRCQQCRFKKCLSVGMSR", "abundance fitness": "-0.238 ± 0.11"}
{"variant": "CKVCGDVASGFHYGVHACEGCKGFFRRSIQGNIQYKKCLKNENCSIMRMNRNRCQQCRFKKCLSVGMSR", "abundance fitness": "-0.152 ± 0.072"}
{"variant": "CKVCGDVASGFHYGVHACEGCKGFFRRSIQDNIQYKKCLKNENCSIMRMNRNRCQQCRFKKCLSVGMSR", "abundance fitness": "-0.278 ± 0.18"}
{"variant": "CKVCGDVASGFHYGVHACEGCKGFFRRSIQLNIQYKKCLKNENCSIMRMNRNRCQQCRFKKCLSVGMSR", "abundance fitness": "-0.169 ± 0.11"}
{"variant": "CKVCGDVASGFHYGVHACEGCKGFFRRSIQKNIQYKKCLKNENCSIMRMNRNRCQQCRFKKCLSVGMSR", "abundance fitness": "-0.391 ± 0.25"}
{"variant": "CKVCGDVASGFHYGVHACEGCKGFFRRSIQMNIQYKKCLKNENCSIMRMNRNRCQQCRFKKCLSVGMSR", "abundance fitness": "-0.262 ± 0.15"}
{"variant": "CKVCGDVASGFHYGVHACEGCKGFFRRSIQPNIQYKKCLKNENCSIMRMNRNRCQQCRFKKCLSVGMSR", "abundance fitness": "-0.457 ± 0.15"}
{"variant": "CKVCGDVASGFHYGVHACEGCKGFFRRSIQQNGQYKKCLKNENCSIMRMNRNRCQQCRFKKCLSVGMSR", "abundance fitness": "-0.338 ± 0.053"}
{"variant": "CKVCGDVASGFHYGVHACEGCKGFFRRSIQQNQQYKKCLKNENCSIMRMNRNRCQQCRFKKCLSVGMSR", "abundance fitness": "-0.553 ± 0.11"}
{"variant": "CKVCGDVASGFHYGVHACEGCKGFFRRSIQQNYQYKKCLKNENCSIMRMNRNRCQQCRFKKCLSVGMSR", "abundance fitness": "-0.181 ± 0.12"}
{"variant": "CKVCGDVASGFHYGVHACEGCKGFFRRSIQQNMQYKKCLKNENCSIMRMNRNRCQQCRFKKCLSVGMSR", "abundance fitness": "-0.35 ± 0.077"}
{"variant": "CKVCGDVASGFHYGVHACEGCKGFFRRSIQQNAQYKKCLKNENCSIMRMNRNRCQQCRFKKCLSVGMSR", "abundance fitness": "-0.377 ± 0.058"}
{"variant": "CKVCGDVASGFHYGVHACEGCKGFFRRSIQQNPQYKKCLKNENCSIMRMNRNRCQQCRFKKCLSVGMSR", "abundance fitness": "-0.672 ± 0.12"}
{"variant": "CKVCGDVASGFHYGVHACEGCKGFFRRSIQQNCQYKKCLKNENCSIMRMNRNRCQQCRFKKCLSVGMSR", "abundance fitness": "-0.591 ± 0.097"}
{"variant": "CKVCGDVASGFHYGVHACEGCKGFFRRSIQQNDQYKKCLKNENCSIMRMNRNRCQQCRFKKCLSVGMSR", "abundance fitness": "-0.708 ± 0.088"}
{"variant": "CKVCGDVASGFHYGVHACEGCKGFFRRSIQQNVQYKKCLKNENCSIMRMNRNRCQQCRFKKCLSVGMSR", "abundance fitness": "-0.213 ± 0.048"}
{"variant": "CKVCGDVASGFHYGVHACEGCKGFFRRSIQQNFQYKKCLKNENCSIMRMNRNRCQQCRFKKCLSVGMSR", "abundance fitness": "-0.38 ± 0.082"}
{"variant": "CKVCGDVASGFHYGVHACEGCKGFFRRSIQQNLQYKKCLKNENCSIMRMNRNRCQQCRFKKCLSVGMSR", "abundance fitness": "-0.065 ± 0.049"}
{"variant": "CKVCGDVASGFHYGVHACEGCKGFFRRSIQQNSQYKKCLKNENCSIMRMNRNRCQQCRFKKCLSVGMSR", "abundance fitness": "-0.527 ± 0.071"}
{"variant": "CKVCGDVASGFHYGVHACEGCKGFFRRSIQQNEQYKKCLKNENCSIMRMNRNRCQQCRFKKCLSVGMSR", "abundance fitness": "-0.424 ± 0.089"}
{"variant": "CKVCGDVASGFHYGVHACEGCKGFFRRSIQQNWQYKKCLKNENCSIMRMNRNRCQQCRFKKCLSVGMSR", "abundance fitness": "-0.668 ± 0.12"}
{"variant": "CKVCGDVASGFHYGVHACEGCKGFFRRSIQQNRQYKKCLKNENCSIMRMNRNRCQQCRFKKCLSVGMSR", "abundance fitness": "-0.531 ± 0.058"}
{"variant": "CKVCGDVASGFHYGVHACEGCKGFFRRSIQQNHQYKKCLKNENCSIMRMNRNRCQQCRFKKCLSVGMSR", "abundance fitness": "-0.493 ± 0.14"}
